Drawing on a protein production outcome set (Wang et al. 2014), this text covers protein production for 19 sequences.

This data set can be described thus: label from the status in PepcDB records.
As to “MQRPHVQEAEATAAPQQRTGASATFAELLKRVKAEGLLDLDPRYYIGRLALNTTLLLVGFAAFFALGDSWWQLVVALWMGLCGGQSAFMWHDAGHKAMFRSKKAASAVGYFHANLVNGVSFGWWVNHHNRHHSNPNHLDMDPDIGRRTAIFDIKQYPTRRGTQKFIVRYQSVLFFALLVTESFKMLKTAVLSIAQGKTKRPVLESFLLLARAAVYLTLVFTVLSPVLAVAFVLVQQAALGVYFGMIFAPNHKGMEVRDGDEETLDWLERQVLTSRNIRPSLFIDFLYGGLNYQVEHHLFPAMPQKNLARARELTRAYCAERGVPYHEVGFWASYREVASFLHEVSAPVRRGDVEEQIRRQAGQAA”, the protein production result is “failed”.

Regarding “MQSATDVAEYCKYDGFDGLKRAISLSDEEILNELDIAHLRGRGGAAYPLGKKWRHLYHAKGTTKYIVCNADEGEPGTFKDKVLLSEDPLSVIEGMIIAGYLFSAKAGYIYMRGEYRRIQKTFQEALDNARQAGFLGENILGIEGFNYDITIISGAGAYICGENSALLNSIEGKTGRPRVKPPHLADVGLYLQPTLVNNVESFASVPVILREGGQAFLEMGTADGGGTKLICLSGHIKNRGLYEVNLGTPLEEIIYGEQYGGGSATGRALKFIHFGGQSGPIGAVATLRDCLYSYEDLWAHDLSVGSGAIVVMDDSVNVVDYLVHVAAFFAHESCGKCTPCRLGTTRILELLSKFNRNEATASDLPRLEKMLTHVTRLSACGLGQSVANPMKSALALFPEEFETTAETEIYATSKGGWLEHHHHHH”, the protein production entry is recorded as “not failed”.

For “MQSDHKEKIAILVDVQNVYYTCREAYRSNFDYNQFWYVATQEKEVVSAKAYAIASNDPKQRQFHHILRGVGFEVMLKPYIQRRDGSAKGDWDVGITLDAIEIAPDVDRVILVSGDGDFSLLVERIQQRYNKKVTVYGVPRLTSQTLIDCADNFVAIDDDFLL”, the protein production result is “not failed”.

Consider “MQSDVVLGAAHWVYLLSVVAIILTMVLRANAVVPSVLGTFLVVLAFTGSPIQALVGIFTASFVAAKELFNIFLVITFMTALLNALKVLQADVRMVQPLRRVMTNGHASFLILAGCTYGLSLFFWPTPAVPLVCAILLPAAVAAGLPPLAGAMAIAIAGQGMALSSEYVIGVAPGISAKAAGAAVSAAVVADRALVLSVITGAIALVMTYLFMRKHIVPGDTALLAAWQARAQDGELERIEGSGSFDKAELARGASQPVKGGAEARLAGWSRAFALITPIAFLGVIALMALPRLVPGLPALRGGDAAALVGGVAFMLMMLATLAAEGPRRMLDVCPEHVTDGFVFAFRAMGSVLPIAGFFFIGAAETAAPILGLESGHAPGLLFDLISAAQHLIPENHYLVAFGVLLVGMVTGIDGSGFAGLPLTGTLSGALGPVVGIDPATLAAVGQMGAVWTGGGTLIAWSSLIAVAGFARVHVLDMVRALMLPVLLALSVSTIAAILIWS”, for which the protein production result is recorded as “failed”.

As for “MQSLHGNCLIAYARHKYILTMVNGEYRYFNGGDLVFADASQIRVDKCVENFVFVSRDTLSLFLPMLKEEALNLHAHKKVSSLLVHHCSRDIPVFQEVAQLSQNKNLRYAEMLRKRALIFALLSVFLEDEHFIPLLLNVLQPNMRTRVCTVINNNIAHEWTLARIASELLMSPSLLKKKLREEETSYSQLLTECRMQRALQLIVIHGFSIKRVAVSCGYHSVSYFIYVFRNYYGMTPTEYQERSAQRLSNRDSAASIVAQGNFYGTDRSAEGIRL”, the protein production result was “failed”.

“MQSPPHDPASALAIRNHYRQSQSRAARLRLLVDTGQELIQLPPEAMRKCVLQRACAFVAMDHGLLLEWGADNGVQTTARHGSKERLSTLETTADPLAIGPQWLERPGTHLPCVLLLPLRGADEGSFGTLVLANSVAISAPDGEDIESLQLLATLLAAHLENNRLLEALVARDRTMSQLVRQLFTAQEDERKRVAYDLHDGLAQTLAGLHQRLQGFAGRCPELPAQLDADLQAILKLAQHCVGEGRQLISGLRPAVLDDFGLWQAVDKEADRLREAGIIVQWTSQSLERLPSHLEIALFRIAQEGINNVLKHANASCVELALELSDGNVSLRLQDNGRGFITEKPINGTGVQKLGLVAMQERASLLGGRLTCVSRPGRGTRLRTIVPFTADKAIT”: the protein production result is recorded as “failed”.

Regarding “MQSRSDGSWVLTLSRRLDAPSGEFAGVVLVTLQLKYFQNYYSTFEVGPHGTIGMTNDDGIVMVRRPDKQGVIGTSIAGTSIYVTMRARKHGTATYRSPIDRVERISSFAPARPYPLTVLTGFSVDDALANWRETARQRIVVAALGCTLLLGVGIWLDLQLRRMHRNEAKLSTEAWVDALTGIANRRAFDHRLSRALQDAVRLEAPLSVLMIDVDHFKLYNDTYGHVNGDACLRLIAGAIAGCSRRSEDLAARYGGEEFGMILPHTDAAGALRLADAVRNAVAELGLMHLSSPTSAHVTVSIGAATFEPGEAPLSPNAIVHDADSALYRAKQKGRNRTSA”, the protein production entry is on record as “failed”.

For “MQSYAADLIALGLLFLTGLAADQLGARSRLPRVTLLLICGLLAGSAGFDLIPESLAALYPIISVIALSMVAFLLGGELSLRTLSGHGRAIVVISVMVVLVTQLTVSAGLAMIGMPLAAALMVGALATATDPAATLDVIRQGRASGDFPRRLKGIVAIDDAWGVLLFGLVAVLAGAVEGNGSAHGLLGGALVEIAGSVALGLAVGLPGASLTGRLSGGEPLRIEALGLVFLTAGLSLWLDLSYLIAGMTAGAVIVNLAHHHKRAFREIEHIEWPFMIVFFILAGASLDLSALWAVGPLLMGYVALRVLGRVLGGWAGAALAATARGERPWYGPALLPQAGVAIGMALIAGDLFPQYADMITALAIGATVVFELAGPLAAAYALRRVRDSRDQSAA”, the protein production result is recorded as “failed”.

Take “MQSYFSPLLDAMHAWLMLQLPGPVAGALLGGLHALVFIPLAALAWRVLSNESRRAQWVPLFALAGMCSAVFLSELGNTMGDTASAIPVLAALAVVLLAQFRARNGLHVVHLWAVAGALIGLAVALKLTNALYALALVPAVLCDGGRLRSRVLALSVLAGVALLVLLLVAGPWYWQVWQHLGNPLFPQFNGVFKSPLAQPVSIADVRWLPRTIGEQLIWPLLFTLKPQRIGDLGLVQAGWAVLYGVVAIAAGRALVRRPVRAAAVDRAAIVLLVFFGVAYALWQAIFSIHRYLVVLELLAPLVLWIVCRHAFAARANRKAAWLIGACALVAVVGWKDWGHESWARESFQVEQPVLGNPAASSVLLVGDEPQSWRVPLLPSQARYIGVATNISETDHYRQRVRALIAERPQLYAMLGAARDKQQVRIDRMNRLAQQFGWERQPGCSRLRWLVARGLRAELDTSQPDRCVLAIPKGKALDIAAADQAVREAAQQRLAAYGLTLDPARCRTLSSQVGQAVYPYQFCQLALPN”: the protein production result is “failed”.

As to “MQTIYRLKEPQIDREEDVRTIIQTFLFQFSEKAYGGPSFNRPACCFAPHIYGAGKTFVGQNFSAYLNIFAERECSNAQTFQQLHSSNDNPQPSELKVPWKHFAEKTLSVCFKLEESFSDAPFPSFRKALMYNIILNS”, the protein production entry is “not failed”.

For “MQTKEKLASLSYLAVKSLLYELNLTPKPGLVDCHNNGAHNDMDFYTFLDSILSLSPFFKKYIEVGWLYHNESPQYLFNQLRKLGIEAEAAMFSATERVNTHKGINFSFALLLGATGSYLAKHIELIQEKRRFMPQDSLTICHLAGEMSMHLIQNDLSHVETKRNLTYGEKLFLQYGLKGLRGEASQGYPSLTQKALPFFRNELLKKQDIQISQLKLLLYLMTFIEDSNIIHRGGIKSWKKVQQEAQTLLEKDLPPYQLKEQLNSYNQILTDRHLSPGGAADLLSLTLYFSFLEQLI”, the protein production entry is given as “failed”.

Take “MQTKKNEIWVGIFLLAALLAALFVCLKAANVTSIRTEPTYTLYATFDNIGGLKARSPVSIGGVVVGRVADITLDPKTYLPRVTLEIEQRYNHIPDTSSLSIRTSGLLGEQYLALNVGFEDPELGTAILKDGDTIQDTKSAMVLEDLIGQFLYGSKGDDNKNSGDAPAAAPGNNETTEPVGTTK”: the protein production result is “failed”.

“MQTLREFTRKTKRGNILKIVREHYLRDDIGCGSELCRECFQNEVYQLTSQHANKSTLFKFPHYLVLDTNVVLDQIDVLEEDVLRNVVVLTTVLNEVKHRSSAIYKRFNEIVHDRTRNFYVFVNEHHKETYADREPDETANDRNDRAIRLATKWYDDHLQASQSSKEFERSGKAATRVVLLTDDAANRAKAEAEGILVTTAAEYVKSLEDFPLLMDKLSHKTFDSEKNGLPQYPPHLSMKELLEGLRQNKLLQGTFQASRENYLEGTVNVEKFEKGILIQGRESLNRAVDGDLVAVELLPEAEWSAPSEIVLEEKNVYADEVPSEERAKDENEMLNQVRAAALSAERTPTGRIVGIVRRKWRQYCGILQPSLIEDTNRHIFVPADRKIPRIRIETRQAAMLQNQRIIVTIDTWPRNSRYPHGHFVRSLGPLGDMATENEVILLEHDVPHCKFSDEVLSFLPKMPWTITDEDYSKRVDLRDLYICSVDPPGCTDIDDALHCKELPNGNLEVGVHIADVSHFIRPGNALDMEAAARGTTVYLVGKRIDMVPELLSSNLCSLVGGVERFAFSCVWEVDNEANVLSKRFHKSVIKSKRAMTYEEAQNIIDDATQQNEIAKSLRNLNRLAKILKKRRMDNGALVLASPEIRFQVDSETHEPLEVEVKQMRETNSMVEEFMLLANITVAEHIATEFSECAVLRRHPRPPPTNFDPLVKSARYQGFQVDINSGLELSHSLDKCVKADNPYFNTMIRILTTRCMMQAVYFISGSLQKEEFFHYGLAAPIYTHFTSPIRRYSDIMVHRLLAASIGADSTYAQLLDRKSNEELCHNLNYRHKMAQYAGRASVALNTHLFFRGKEEDEEGYVLFVRKNALQVLIPKYGLEGTLYLKSDKDGKDGVERVKSEIVFTFNEEDHTQRCGDVVFHSFDPVTVRLSLDSSNVQHEKLIFRLVKPYIKGFSVETTTEGTDSQAVSAAPPSKKTKKDKKKK”: the protein production result was “failed”.

Regarding “MQTNLLSRPTSAKSTSMSDKINHPQLCQWLESVAISRDKQAFTHLFQFFAPKILRIARGKFPNEAQANEVVQDTMSNVWRKAHLYNQDKGAATTWVYTVMRNVTFDMLRKIQGNKEDNLSDDIWPIAESMSIENEIFDDHLEHANLLSVIEELPQAQQDVVKGFYFREMSQEQLAVHLHLPLGTVKSRLRLALGKLKVQLGEKHD”, the protein production result is “failed”.

“MQTPPRLVAIGGLSGSGKTTIAEALAAHVGAPPGARIVESDRIRKAMHGVPAETRLPDNAYRPDVSDRVYNEMTWRAGLILSEGGSVVADAVFDRPADRERIEKAARDRGIPFFGFWLEADPLVLWQRVSERKGGPSDATVDILSRQLQRKAGLEHHHHHH”: the protein production result is “failed”.

Take “MQTQLTEEMRQNARALEADSILRACVHCGFCTATCPTYQLLGDELDGPRGRIYLIKQVLEGNEVTLKTQEHLDRCLTCRNCETTCPSGVRYHNLLDIGRDIVEQKVKRPLPERILREGLRQVVPRPAVFRALTQVGLVLRPFLPEQVRAKLPAETVKAKPRPPLRHKRRVLMLEGCAQPTLSPNTNAATARVLDRLGISVMPANEAGCCGAVDYHLNAQEKGLARARNNIDAWWPAIEAGAEAILQTASGCGAFVKEYGQMLKNDALYADKARQVSELAVDLVELLREEPLEKLAIRGDKKLAFHCPCTLQHAQKLNGEVEKVLLRLGFTLTDVPDSHLCCGSAGTYALTHPDLARQLRDNKMNALESGKPEMIVTANIGCQTHLASAGRTSVRHWIEIVEQALEKE”: the protein production result is “failed”.

Regarding “MQVEETSIEEIQTKIKRLNSKAGQMKMDLHDLAEGLPTDYTQLMDVAAATYEIYRQLDELKQELKKLENAK”, the protein production result was “failed”.

On to “MQVHYYGGTAEAAGTSEETVETPTGLSVNQLLDHLRNLHPGLGRLLGVCTLFVDGSAVRGEQIVPARAQVEVLPPFAGG”, for which the protein production result was “failed”.

As for “MQVIKQKLTATCAQLTGYLHQPDTNAHQTNLPAIIIVPGGSYTHIPVAQAESLAMAFAGHGYQAFYLEYTLLTDQQPLGLAPVLDLGRAVNLLRQHAAEWHIDPQQITPAGFSVGGHIVALYNDYWATRVATELNVTPAMLKPNNVVLGYPVISPLLGFPKDDATLATWTPTPNELAADQHVNSDNQPTFIWTTADDPIVPATNTLAYATALATAKIPYELHVFKHGPHGLALANAQTAWKPDANQPHVAHWLTLALEWLADNR”, the protein production entry was “not failed”.
